This note sets out measurements from patent publication US20160130327A1 (Merck Sharp & Dohme, published 2016).

The target in one assay is T1, recombinant gB (human cytomegalovirus (CMV), UniProt P06473 32-700).
T1 construct: also called gB protein; recombinant gB antigen
As to the kind of experiment: EIA on recombinant gB.

The target of assay [1] is T2, revertant virus (AD169 CMV with the pentameric gH complex restored). As to the kind of experiment: cell-based or functional assay.
In assay [2] the target is T2, revertant virus (AD169 CMV with the …). Briefly: antibody-titration EIA, coated revertant virions.

As usually defined, the EC50 is the concentration giving half of the maximal effect.

T1 sequence (P06473 32-700 limits assumed): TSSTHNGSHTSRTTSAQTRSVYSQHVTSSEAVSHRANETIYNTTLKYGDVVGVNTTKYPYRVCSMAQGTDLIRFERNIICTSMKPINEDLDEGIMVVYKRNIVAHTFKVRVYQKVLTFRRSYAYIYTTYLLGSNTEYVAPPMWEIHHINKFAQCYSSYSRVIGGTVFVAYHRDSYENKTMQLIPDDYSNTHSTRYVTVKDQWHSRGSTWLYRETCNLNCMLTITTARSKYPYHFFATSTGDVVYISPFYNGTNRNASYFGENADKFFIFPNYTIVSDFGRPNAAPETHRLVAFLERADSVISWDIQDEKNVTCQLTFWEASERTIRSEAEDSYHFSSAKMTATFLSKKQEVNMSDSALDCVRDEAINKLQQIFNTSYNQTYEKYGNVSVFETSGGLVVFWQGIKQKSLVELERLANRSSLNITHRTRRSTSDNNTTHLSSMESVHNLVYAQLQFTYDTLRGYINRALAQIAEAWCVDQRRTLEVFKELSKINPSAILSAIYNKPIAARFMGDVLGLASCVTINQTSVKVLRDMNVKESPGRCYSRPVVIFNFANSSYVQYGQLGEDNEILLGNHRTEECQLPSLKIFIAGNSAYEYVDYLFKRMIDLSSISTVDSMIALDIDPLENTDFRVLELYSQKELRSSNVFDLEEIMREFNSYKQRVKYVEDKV

B1: 276.10 (antibody, V domains shown)
VH: QSLEESGGDLVQPEGSLTLTCTASGFSFSGSYYMCWVRQAPGTGLEWIACIDGDLSGSAYYANWAKGRFTISGTSSTTVTLQVTSLTAADTATYFCAREGPVGVGSIYLGFDLWGPGTLVTISS
VL: ELDLTQTPASVEVPVGGTVTIKCQASHNINTYLSWYQQKPGQPPKLLIYRASDLASGVSSRFSGSGSGTQFTLTISGVECADAATYYCQQGFNSLNVENVFGGGTEVVVK
notes: rabbit hybridoma mAb (not the humanized version); also called clone 276.10
With B1, the binding result with recombinant gB is reported as “no binding (tested: 1 µg/ml)”. In addition, in assay [1], the “Neutralization in ARPE-19 cells EC50” value turned out to be 0.01 µg/mL and the “Neutralization in MRC-5 cells EC50” value came out at 100 µg/mL. For the same molecule, the EC50 in assay [2] amounted to 0.25 µg/mL.

B2: 212.6 (antibody, V domains shown)
VH: QSLEESGGRLVTPGTPLTLTCTVSGFSLSSYAMSWVRQAPGKGLEWIGIIGSSGNTYYASWAKGRFTISKTSTTVDLKITSPTTEDTATYFCARGGYSYDDYTPFDLWGPGTLVTVSS
VL: ELVLTQSPSLSASLGTTARLTCTLSTGYSVGKYPLVWLQQVPGRPPRYLLTYHTEEFKHQGSGVHSRFSGSKDTSENAGVLSISGLQPEDEADYYCATAHATESSLHYVFGGGTQLTVT
notes: rabbit hybridoma mAb; also called clone 212.6
In the case of B2, in assay [1], the “Neutralization in ARPE-19 cells EC50” value amounted to 3.71 µg/mL and the “Neutralization in MRC-5 cells EC50” value worked out at 100 µg/mL. The molecule also showed an EC50 in assay [2] of 52.9 µg/mL.

B3: 347.3 (antibody, V domains shown)
VH: QSLEESEGRLVTPGTPLTLTCTVSGIDLSTYAMNWVRQAPGKGLEWIGIIGSSGGAYYASWAKGRCTISKTSTTVDLKITSPTTEDTATYFCAVSLYTYDDYADYFLWGPGTLVTISS
VL: ELVLTQSPSLSASLGTTARLTCTLSTGYSVGKYPLVWLQQVPGRPPRYLLTYHTEEFKHQGSGVHSRFSGSKDTSENSFVLRIFGLQPEDEADYYCVTAHPTESSLHYVFGGGTQLTVT
notes: rabbit hybridoma mAb; also called clone 347.3
Regarding B3, in the assay with recombinant gB, the binding result is “no binding (tested: 1 µg/ml)”. Further, in assay [1], the “Neutralization in ARPE-19 cells EC50” value worked out at 0.03 µg/mL and the “Neutralization in MRC-5 cells EC50” value stood at 100 µg/mL. The same molecule showed an EC50 in assay [2] of 0.34 µg/mL.

B4: 70.7 (antibody, V domains shown)
VH: QSVEESRGRLVTPGTPLTLTCTASGFSLSSYHMIWVRQAPGKGLEWIGYINYNNNPYYATWAKGRFTISRTSTTVALKITSPTTEDSATYFCARAAGNYYVGALNLWGPGTLVTISS
VL: ERDMTQTPASVEVAVGGTVTIKCQASQSIGNLLAWYQQKPGQRPKLLIYDASTLASGVPSRFKGSGSGTEFTLTISGVQCADAATYYCQQGYMITNVENAFGGGTEVVVK
notes: rabbit hybridoma mAb; also called clone 70.7
In the case of B4, the binding result with recombinant gB is given as “no binding (tested: 1 µg/ml)”. Also, in assay [1], the “Neutralization in ARPE-19 cells EC50” value turned out to be 0.03 µg/mL and the “Neutralization in MRC-5 cells EC50” value came out at 0.09 µg/mL. The same molecule displayed an EC50 in assay [2] of 1.46 µg/mL.

B5: 316.2 (antibody, V domains shown)
VH: QSVKESEGRLVTPGTPLTLTCTASGFSLSSYHMIWVRQAPGKGLEWIGYINNNDNPYYATWAKGRFTISRTSTTVALKITSPTTKDTATYFCARAAGNYYVGALNLWGPGTLVTISS
VL: ELVLTQTPASVEVAVGGTVTIKCQASQTIGNLLGWYQQKPGRPPKLLIYDASTLASGVPSRFKGSGSATEFTLTIRGVQCDDAATYYCQQGYMITNVENAFGGGTEVVVK
notes: rabbit hybridoma mAb; also called clone 316.2
On to B5, for which the binding result with recombinant gB was “no binding (tested: 1 µg/ml)”. In addition, in assay [1], the “Neutralization in ARPE-19 cells EC50” value amounted to 0.02 µg/mL and the “Neutralization in MRC-5 cells EC50” value was found to be 0.08 µg/mL. The same molecule registered an EC50 in assay [2] of 1.06 µg/mL.

B6: 270.7 (antibody, V domains shown)
VH: QSVEESGGRLVTPGTPLALTCTASRFSLSSNHMIWVRQAPGKGLEWIGYINYNNNPYYATWAKGRFTISRTSTTVALKITSPTTEDTATYFCARAAGNYYVGALNLWGPGTLVTISS
VL: ELVMTQTPASVEVAVGGTVTIKCQASQSIGNLLAWYQQEPGQRPKLLIYDASTLASGVPSRFKGSGSGTEFTLTISGVQCADAATYYCQQGYMITNVENAFGGGTNVEIK
notes: rabbit hybridoma mAb; also called clone 270.7
Turning to B6, in the assay with recombinant gB, the binding result was “no binding (tested: 1 µg/ml)”. Also, in assay [1], the “Neutralization in ARPE-19 cells EC50” value is 0.02 µg/mL and the “Neutralization in MRC-5 cells EC50” value was 0.06 µg/mL. Further, it took 0.68 µg/mL to reach a half-maximal effect in assay [2] (EC50).

B7: 210.4 (antibody, V domains shown)
VH: QSVEESGGRLVTPGTPLTLTCTVSGFSLSTNAMSWVRQAPGKGLEWIGYIWSGGSTYYASWAKGRFAISKTSTTVDLKITSPTTEDTATYFCAKNGDNGQLDLWGQGTLVTVSS
VL: ELVLTQTPSPVSAAVGGTVTINCQTSQSLYNNNFLSWYQQKPGQPPKLLIYKASTLESGVPSRFKGSGSGTQFTLTISGVQCDDAATYYCQGEFSCSSADCNAFGGGTEVVVK
notes: rabbit hybridoma mAb; also called clone 210.4
As for B7, in assay [1], the “Neutralization in ARPE-19 cells EC50” value worked out at 100 µg/mL and the “Neutralization in MRC-5 cells EC50” value amounted to 100 µg/mL. Also, in assay [2], the response was half-maximal at 0.03 µg/mL (EC50).

B8: 124.4 (antibody, V domains shown)
VH: QSLEESGGRLVTPGTPLTLTCTVSGFSLSSCNMGWVRQAPGEGLEWIGYIAASGDAFYASWAKGRFTISKTSSTTVDLRITSPTTEDTAAYFCARGSYAAYNAWDLWGPGTLVTVSS
VL: ELDMTQTASPVSAAVGGTVTINCQSSQSVYNKNYLSWYQQKPGQPPKLLIYGASTLPSGVPSRFKGSGSGTQFTLTISEVQCDDAATYYCQGYYSGYIYAFGGGTEVVVK
notes: rabbit hybridoma mAb; also called clone 124.4
As to B8, in the assay with recombinant gB, the binding result is “no binding (tested: 1 µg/ml)”. Further, in assay [1], the “Neutralization in ARPE-19 cells EC50” value worked out at 0.05 µg/mL and the “Neutralization in MRC-5 cells EC50” value amounted to 0.08 µg/mL. In addition, in assay [2], the EC50 came out at 1.72 µg/mL.

B9: 324.4 (antibody, V domains shown)
VH: QSVKESEGRLVTPGTPLTLTCTVSGFSPSSYNMGWVRQAPGEGLEWIGYISTSGNTFYASWAKGRFTISKTSTTVDLRITSPTTEDTATYFCARGSYVAYNAWDLWGPGTLVTISS
VL: ELDLTQTASPVSAAVGGTVTINCQSSQSVYNNNYLSWYQQKPGQPPKLLIYGASTLASGVPSRFKGSGSGTQFTLTISEVQCDDAATYYCQGYYSGYIYAFGGGTEVVVK
notes: rabbit hybridoma mAb; also called clone 324.4
As for B9, in the assay with recombinant gB, the binding result is listed as “no binding (tested: 1 µg/ml)”. Besides, in assay [1], the “Neutralization in ARPE-19 cells EC50” value was 0.1 µg/mL and the “Neutralization in MRC-5 cells EC50” value was 0.21 µg/mL. Moreover, in assay [2], the EC50 was determined as 4.09 µg/mL.

B10: 57.4 (antibody, V domains shown)
VH: QSLEESGGGLVKPGGTLTLTCTASGFSFSSVYDMSWVRQAPGKGLEWIASIVTGSRTTWYASWAKGRFTVSKTSSTTVTLQMTSLTAADTATYFCARGEYGHDGYVDGTMGLGLWGPGTLVTISS
VL: ELDLTQTPASVEAAVGGTVAIKCQASQSIRRHLSWYQQKPGQRPKLLIYGASNLASGVSSRFKGSGSGTEFTLTISDLECADAATYYCQCTYGVGFSSTYGDAFGGGTELEIL
notes: rabbit hybridoma mAb (not the humanized version); also called clone 57.4; mAb 57.4
With B10, the binding result with recombinant gB is given as “no binding (tested: 1 µg/ml)”. Further, in assay [1], the “Neutralization in ARPE-19 cells EC50” value came to 0.01 µg/mL and the “Neutralization in MRC-5 cells EC50” value turned out to be 100 µg/mL. This molecule also yielded an EC50 in assay [2] of 0.09 µg/mL.

B11: 350.1 (antibody, V domains shown)
VH: QSLEESGGDLVKPGASLTLTCTASGFSFSNSYYMCWVRQAPGKGLEWIVCIYAGSSGFTYYANWAKGRFTVSKTSSTTVTLQMTSLTAADTATYFCARDRGYYTYGYAGYGYGMDLWGPGTLVTISS
VL: ELDMTQTPSPVSTAVGGTVSISCQSGQNVWTNDYLSWYQQKPGQPPKLLIYRASTLASGVPSRFKGSGSGTQFTLTISDVQCDDAATYYCGGTFLSNGDNGFGGGTEVVVK
notes: rabbit hybridoma mAb; also called clone 350.1; mAb 350.1
Take B11: in assay [1], the “Neutralization in ARPE-19 cells EC50” value came out at 100 µg/mL and the “Neutralization in MRC-5 cells EC50” value came to 100 µg/mL. Also, the midpoint of the response in assay [2], the EC50, lay at 0.02 µg/mL.

B12: 58.5 (antibody, V domains shown)
VH: QSLEESGGRLVTPGGSLTLTCTVSGFSLSAYSVSWVRQAPGKGLEWIGIIGHSGNTYYASWAKGRFTISKTSTTVDLKITSLTTEDTATYFCAREDYRYGDYGYYWDFNFWGPGTLVTISS
VL: ELDLTQTASPVSAPVGGTVTINCQASQNIYSNLAWYQQKPGQPPKLLIYGASTLASGVSSRFKGSRSGTEFTLTISDLECADAATYYCQSYVYSSSTADTFGGGTEVVVK
notes: rabbit hybridoma mAb (not the humanized version); also called clone 58.5
As for B12, the binding result with recombinant gB was “no binding (tested: 1 µg/ml)”. Also, in assay [1], the “Neutralization in ARPE-19 cells EC50” value was 0.02 µg/mL and the “Neutralization in MRC-5 cells EC50” value is 100 µg/mL. Besides, in assay [2], the midpoint of the response, the EC50, lay at 0.59 µg/mL.

B13: 223.4 (antibody, V domains shown)
VH: QSLEESGGRLVTPGTPLTLTCTVSGFSLSAYSVSWVRQAPGKGLEWIGIIGHSGNTYYANWAKGRFTISKTSTTVDLKITSLTIEDTATYFCAREDYRYGDYGYYWDFNFWGPGTLVTISS
VL: ELVMTQTPSPVSAPVGGTVTISCQASRSVYNENYVAWFQHRPGQPPKLLIYTTSILASGVPSRFKGRGSGTQFTLTISDVQCDDAATYYCAGDYDDNEENAFGGGTELEIL
notes: rabbit hybridoma mAb; also called clone 223.4
Take B13: the binding result in the assay with recombinant gB is on record as “no binding (tested: 1 µg/ml)”. Also, in assay [1], the “Neutralization in ARPE-19 cells EC50” value turned out to be 0.06 µg/mL and the “Neutralization in MRC-5 cells EC50” value is 100 µg/mL. The molecule also yielded an EC50 in assay [2] of 1.54 µg/mL.

B14: 240.8 (antibody, V domains shown)
VH: QSVEESGGGLVTPGGTLTLTCGVSGIDLSANEMGWVRQAPGEGLEWIGTLSYHNIPHYATWAKGRFTISKTSTTVDLKITSPTSADTATYFCGRVFTSTSFDPWGPGTLVTISS
VL: ELVMTHPPASVSAPVGGTVTIKCQASHNIGSRLPWYQQEPGQPPKLLIYRTSTLASGVPSRFTGSGYGTEFTLTISDLECADAATYYCQDHDDISHAFGGGTNVEIK
notes: rabbit hybridoma mAb; also called clone 240.8
In the case of B14, in assay [1], the “Neutralization in ARPE-19 cells EC50” value was 0.79 µg/mL and the “Neutralization in MRC-5 cells EC50” value is 100 µg/mL. This molecule also registered an EC50 in assay [2] of 2.6 µg/mL.
